Molecular target: FLAG-AuxB^W86A (S. aureus) (S. aureus)
Experiment: co-IP; FLAG-tagged bait from S. aureus membranes solubilised in 1% DDM (PBS pH 7.4, NaCl), α-FLAG M2 magnetic beads at 4°C, washes with decreasing DDM, elution with 3×FLAG peptide; Coomassie-stained gel, bands identified by LC-MS

## PknB (endogenous, S. aureus) (from UniProt A0A0H2XGG5 1-664) (natural protein)
  ratio of PknB pulled down, AuxB^W86A against wild type (densitometry): 4.2
  ratio of PknB pulled down, AuxB^W86A against wild type (peptide counts of PknB in the total eluate): 5

Reference: paper PMC12505970
